From article PMC10138348, “Continuous Fluorescent Sirtuin Activity Assay Based on Fatty Acylated Lysines” (International Journal of Molecular Sciences, 2023)

Key:
[1] = biological target: F4, TNFα-derived peptide with a myristoylated lysine and fluorescein-labelled cysteine in the +2 position; assay: fluorescence polarisation; BSA in serial dilution from 752 µM, labelled peptide fixed; 384-well plate, 20 mM Tris-HCl pH 7.8, 150 mM NaCl, 5 mM MgCl2; three independent replicates
[2] = biological target: F6, deacylated fluorescein-labelled peptide product of F4 (fluorophore in +2 position); assay: as above
[3] = biological target: F4, TNFα-derived peptide with a myristoylated lysine and fluorescein-labelled cysteine in the +2 position; assay: other fluorescence titration; fluorescence spectra of the labelled peptide with increasing concentrations of BSA; excitation 490 nm, relative intensity at 517 nm against BSA concentration; n = 1
[4] = biological target: F6, deacylated fluorescein-labelled peptide product of F4 (fluorophore in +2 position); assay: as above

Sequence of bovine serum albumin (P02769 25-607): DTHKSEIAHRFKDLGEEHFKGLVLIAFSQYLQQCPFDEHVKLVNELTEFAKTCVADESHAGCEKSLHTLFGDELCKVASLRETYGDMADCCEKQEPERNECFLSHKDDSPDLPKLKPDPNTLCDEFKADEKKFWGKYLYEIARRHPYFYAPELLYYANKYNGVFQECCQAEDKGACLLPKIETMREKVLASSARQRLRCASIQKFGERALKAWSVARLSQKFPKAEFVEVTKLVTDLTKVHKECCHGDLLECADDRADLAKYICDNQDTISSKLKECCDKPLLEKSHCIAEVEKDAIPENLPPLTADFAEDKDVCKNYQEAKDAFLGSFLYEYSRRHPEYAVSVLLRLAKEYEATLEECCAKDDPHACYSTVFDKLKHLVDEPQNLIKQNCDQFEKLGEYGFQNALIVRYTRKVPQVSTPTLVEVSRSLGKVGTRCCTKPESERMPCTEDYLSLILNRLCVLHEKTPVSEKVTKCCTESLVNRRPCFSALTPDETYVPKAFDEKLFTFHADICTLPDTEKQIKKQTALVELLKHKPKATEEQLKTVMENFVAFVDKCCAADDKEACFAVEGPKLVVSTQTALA

Kd [1]: 1600 nM
fold KD against the F4/BSA complex [2]: > 100 fold
Kd [3]: 1200 nM
fold KD against the F4/BSA complex [4]: > 100 fold
Substance: bovine serum albumin (from UniProt P02769 25-607) (natural protein)
